The term EC50 denotes the concentration that produces a half-maximal response. Read a low EC50 as an effect from little substance.

Where “and” joins values, the source holds several entries; their conditions need not be identical. Equal values may be shown once.

The target of assay [1] is T1, HER3 on HER3-expressing tumor cells (human, UniProt P21860 20-1342).
T1 construct: Endogenous HER3 of human tumor cell lines (MCF-7, FaDu, BT474, A431, NCI-N87, A549, SKBR-3, Colo205, HCT-116, A375 and melanoma lines); also called cellular receptor HER3; cell surface expressed HER3
Description: flow cytometry, HER3-positive MCF-7 cells; MCF-7 cells. In general terms: Flow cytometry measures light scatter and fluorescence of single cells or particles in a stream.

Assay [2] deals with T2, HER3-His (HER3 aa 27-599 of the extracellular domain fused C-terminally with a hexahistidyl-tag) (human, UniProt P21860 27-599).
T2 construct: also called soluble His-tagged HER3; His-tagged extracellular domain of HER3; not shown: C-terminal hexahistidyl-tag
Description: sandwich ELISA: coated EGFR-Fc, serial dilution of Db3-43xhu225-Ig, then 300 nM HER3-His detected by anti-His-HRP.

The target in assay [3] is T3, EGFR on tumor cells (human, UniProt P00533 25-1210).
T3 construct: whole, on cells; also called EGFR on FaDu and SKBR-3 cells
Description: flow cytometry, FaDu cells (very high EGFR, low HER3; the filing says binding is most likely through the hu225 moieties); FaDu cells.

The target in assay [4] is T2, HER3-His (HER3 aa 27-599 of the …). Briefly: ELISA, coated His-tagged HER3 ECD (aa 27-599). On the technique in general: An ELISA detects its analyte on a solid surface through an enzyme-linked reagent.
In assay [5] the target is T1, HER3 on HER3-expressing tumor cells. Briefly: flow cytometry, SKBR-3 cells (carry EGFR and HER3; bispecific, number not split between the two targets); SKBR-3 cells (EGFR and HER3 in similar ranges).
In assay [6] the target is T3, EGFR on tumor cells. The assay is described as above.
The target of assay [7] is T4, HER3-Fc fusion comprising the extracellular domain (aa 27-599) of human HER3 (human, UniProt P21860 27-599).
T4 construct: also called HER3-Fc fusion protein; not shown: Fc part
Description: ELISA, coated HER3-Fc (aa 27-599), anti-His-HRP.

The target of assay [8] is T1, HER3 on HER3-expressing tumor cells. Briefly: cell-based or functional assay.
For assay [9], the target named is T5, CD3 on CD3-expressing Jurkat cells (human, UniProt P07766 23-207).
T5 construct: whole, on cells; also called human CD3
Briefly: flow cytometry, CD3-expressing Jurkat cells.

Assay [10] concerns the target T5, CD3 on CD3-expressing Jurkat cells. Briefly: flow cytometry, CD3-positive Jurkat cells.
Assay [11] deals with T1, HER3 on HER3-expressing tumor cells. Briefly: flow cytometry, HER3-expressing MCF-7 cells.
The next assay has as its target T6, HER2-ECD protein (UniProt P04626 23-652, limits assumed).
T6 construct: extracellular domain
Description: ELISA, immobilized HER2-ECD.

In assay [12] the target is T7, mouse HER3-Fc fusion protein (extracellular region of mouse HER3 fused to a human Fc region) (mouse, UniProt Q61526 20-641).
T7 construct: extracellular domain; not shown: human Fc region
Description: ELISA, immobilized mouse HER3 extracellular region fused to human Fc, scFv detected with anti-His-tag antibody.

T5 sequence (P07766 23-207): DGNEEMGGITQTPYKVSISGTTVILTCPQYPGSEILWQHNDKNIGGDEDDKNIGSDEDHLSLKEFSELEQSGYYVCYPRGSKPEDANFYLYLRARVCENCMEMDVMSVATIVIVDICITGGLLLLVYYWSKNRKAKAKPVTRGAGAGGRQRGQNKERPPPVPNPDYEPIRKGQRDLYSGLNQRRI
T7 sequence (Q61526 20-641): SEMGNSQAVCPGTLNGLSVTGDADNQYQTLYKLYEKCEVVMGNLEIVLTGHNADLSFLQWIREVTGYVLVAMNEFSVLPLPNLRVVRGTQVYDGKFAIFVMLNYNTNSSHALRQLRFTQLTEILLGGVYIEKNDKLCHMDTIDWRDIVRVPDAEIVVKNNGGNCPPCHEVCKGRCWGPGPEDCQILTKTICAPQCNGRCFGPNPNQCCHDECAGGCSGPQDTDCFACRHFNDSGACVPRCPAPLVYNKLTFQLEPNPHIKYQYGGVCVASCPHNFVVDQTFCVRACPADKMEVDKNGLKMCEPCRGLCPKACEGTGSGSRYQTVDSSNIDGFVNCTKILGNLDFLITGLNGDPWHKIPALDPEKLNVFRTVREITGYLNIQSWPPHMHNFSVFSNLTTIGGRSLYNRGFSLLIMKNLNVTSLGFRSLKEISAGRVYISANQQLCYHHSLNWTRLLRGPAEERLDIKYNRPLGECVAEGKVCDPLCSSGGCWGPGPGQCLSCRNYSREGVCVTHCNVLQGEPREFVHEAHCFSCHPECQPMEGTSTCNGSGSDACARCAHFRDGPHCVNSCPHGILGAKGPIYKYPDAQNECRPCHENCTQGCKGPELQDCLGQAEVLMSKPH

B1: Db3-43xhu225-Ig (bispecific antibody, human IgG1, kappa)
light: QVQLQQSGPGLVKPSQTLSLTCAISGDSVSSNRAAWNWIRQSPSRGLEWLGRTYYRSKWYNDYAQSLKSRITINPDTPKNQFSLQLNSVTPEDTAVYYCARDGQLGLDALDIWGQGTMVTVSSGGGGSDIQLTQSPSFLSASVGDRVTITCRASQSIGTNIHWYQQKPGKAPKLLIKYASESISGVPSRFSGSGSGTEFTLTISSLQPEDFATYYCQQNNNWPTTFGAGTKLEIKRTVAAPSVFIFPPSDEQLKSGTASVVCLLNNFYPREAKVQWKVDNALQSGNSQESVTEQDSKDSTYSLSSTLTLSKADYEKHKVYACEVTHQGLSSPVTKSFNRGEC
heavy: EVQLVESGGGLVQPGGSLRLSCAASGFSLTNYGVHWVRQAPGKGLEWLGVIWSGGNTDYNTPFTSRFTISRDNSKNTLYLQMNSLRAEDTAVYYCARALTYYDYEFAYWGQGTTVTVSSGGGGSQAGLTQPPAVSVAPGQTASITCGRDNIGSRSVHWYQQKPGQAPVLVVYDDSDRPAGIPERFSGSNYENTATLTISRVEAGDEADYYCQVWGITSDHVVFGGGTKLTVLASTKGPSVFPLAPSSKSTSGGTAALGCLVKDYFPEPVTVSWNSGALTSGVHTFPAVLQSSGLYSLSSVVTVPSSSLGTQTYICNVNHKPSNTKVDKKVEPKSCDKTHTCPPCPAPPVAGPSVFLFPPKPKDTLMISRTPEVTCVVVDVSHEDPEVKFNWYVDGVEVHNAKTKPREEQYNSTYRVVSVLTVLHQDWLNGKEYKCKVSNKGLPSSIEKTISKAKGQPREPQVYTLPPSRDELTKNQVSLTCLVKGFYPSDIAVEWESNGQPENNYKTTPPVLDSDGSFFLYSKLTVDKSRWQQGNVFSCSVMHEALHNHYTQKSLSLSPGK
notes: Light chain VH3-43xVLhu225-CL, heavy chain VHhu225xVLhu3-43-CH1-CH2-CH3; two sites for EGFR and two for HER3; also called Db-Ig; bispecific and tetravalent diabody-Ig fusion protein
With B1, the concentration giving a half-maximal response (EC50) was 0.054 nM in assay [1]; 0.85 nM in assay [2]; 0.14 nM with EGFR on tumor cells [3]; 0.26 nM in assay [4]; 0.047 nM in assay [5]; 0.047 nM in the assay with EGFR on tumor cells [6].

B2: scDb3-43xCD3-scFv3-43 (bispecific antibody)
chain: QLQQSGPGLVKPSQTLSLTCAISGDSVSSNRAAWNWIRQSPSRGLEWLGRTYYRSKWYNDYAQSLKSRITINPDTPKNQFSLQLNSVTPEDTAVYYCARDGQLGLDALDIWGQGTMVTVSSGGGGSDIQMTQSPSSLSASVGDRVTITCRASQDIRNYLNWYQQKPGKAPKLLIYYTSRLHSGVPSRFSGSGSGTDFTFTISSLQPEDIATYYCQQGNTLPWTFGQGTKLEIKRGGGGSGGGGSGGGGSQVQLVQSGAEVKKPGSSVKVSCKASGGTFSGYTMNWVRQAPGQGLEWMGLINPYKGVSTYNGKFKDRVTITADKSTSTAYMELSSLRSEDTAVYYCARSGYYGDSDWYFDVWGQGTLVTVSSGGGGSQAGLTQPPAVSVAPGQTASITCGRDNIGSRSVHWYQQKPGQAPVLVVYDDSDRPAGIPERFSGSNYENTATLTISRVEAGDEADYYCQVWGITSDHVVFGGGTKLTVLAAAGGSGGGGSGGGTQVQLQQSGPGLVKPSQTLSLTCAISGDSVSSNRAAWNWIRQSPSRGLEWLGRTYYRSKWYNDYAQSLKSRITINPDTPKNQFSLQLNSVTPEDTAVYYCARDGQLGLDALDIWGQGTMVTVSSGGGGSGGGGSGGGGSQAGLTQPPAVSVAPGQTASITCGRDNIGSRSVHWYQQKPGQAPVLVVYDDSDRPAGIPERFSGSNYENTATLTISRVEAGDEADYYCQVWGITSDHVVFGGGTKLTVLGSLHHHHHH
notes: Trivalent: two sites for HER3, one for CD3; also called scDb-scFv; scDb3-43xhuU3-scFv3-43
For the molecule B2, the concentration giving a half-maximal response (EC50) in assay [7] is 0.81 nM; in [9] it was 13.2 nM; in assay [10], 4.2 nM; in assay [11], 0.0316 nM and 0.0314 nM. Moreover, the “IL-2 release of PBMC with HER3-expressing MCF-7 cells (EC50)” value in [8] was 0.29 nM. Besides, the “killing of MCF-7 cells by PBMC, MTT assay (EC50)” value in assay [8] came to 0.034 nM.

B3: IgG 2-35 (antibody, V domains shown)
VH: QMQLVQSGAEVKKPGESLKISCKGSGYSFTSYWIGWVRQMPGKGLEWMGIIYPGDSDTRYSPSFQGQVTISADKSISTAYLQWSSLKASDTAMYYCARLGRSGSYYNYGMDVWGQGTTVTVSS
VL: QAVVTQEPSFSVSPGGTVTLTCGLSSGSVSSSYYPSWYQQTSGQPPRTLIYSTDTRSSGVPDRFSGSILGDKAALTITGAQADDESDYYCMLYMGSGISVFGGGTKLAVL
notes: Anti-HER2 antibody found by phage display
Regarding B3, the EC50 in the assay with HER2-ECD protein is roughly 1.5 nM.

B4: scDb 3-43xCD3 (bispecific antibody)
chain: QLQQSGPGLVKPSQTLSLTCAISGDSVSSNRAAWNWIRQSPSRGLEWLGRTYYRSKWYNDYAQSLKSRITINPDTPKNQFSLQLNSVTPEDTAVYYCARDGQLGLDALDIWGQGTMVTVSSGGGGSDIQMTQSPSSLSASVGDRVTITCRASQDIRNYLNWYQQKPGKAPKLLIYYTSRLHSGVPSRFSGSGSGTDFTFTISSLQPEDIATYYCQQGNTLPWTFGQGTKLEIKRGGGGSGGGGSGGGGSQVQLVQSGAEVKKPGSSVKVSCKASGGTFSGYTMNWVRQAPGQGLEWMGLINPYKGVSTYNGKFKDRVTITADKSTSTAYMELSSLRSEDTAVYYCARSGYYGDSDWYFDVWGQGTLVTVSSGGGGSQAGLTQPPAVSVAPGQTASITCGRDNIGSRSVHWYQQKPGQAPVLVVYDDSDRPAGIPERFSGSNYENTATLTISRVEAGDEADYYCQVWGITSDHVVFGGGTKLTVLAAAHHHHHH
notes: also called scDb3-43xhuU3
With B4, the half-maximal effective concentration (EC50) in [7] was 3.3 nM and 4.87 nM; in assay [9], 3.1 nM; in assay [10], 2.4 nM; in assay [11], 1.1 nM. For the same molecule, the “IL-2 release of PBMC with HER3-expressing Colo205 cells (EC50)” value in [8] came out at 0.3 nM. In addition, the “IL-2 release of PBMC with HER3-expressing MCF-7 cells (EC50)” value in assay [8] is 0.48 nM. In assay [8], the “killing of MCF-7 cells by PBMC, MTT assay (EC50)” value was 0.084 nM.

B5: scFv 3-43 (scFv)
scFv: QVQLQQSGPGLVKPSQTLSLTCAISGDSVSSNRAAWNWIRQSPSRGLEWLGRTYYRSKWYNDYAQSLKSRITINPDTPKNQFSLQLNSVTPEDTAVYYCARDGQLGLDALDIWGQGTMVTVSSGGGGSGGGGSGGGGSQAGLTQPPAVSVAPGQTASITCGRDNIGSRSVHWYQQKPGQAPVLVVYDDSDRPAGIPERFSGSNYENTATLTISRVEAGDEADYYCQVWGITSDHVVFGGGTKLTVLG
As to B5, the binding result in [12] is recorded as “binds”.

(Values after US20190194350A1 (UNIVERSITAT STUTTGART, published 2019).)
